Data reported in patent publication US20220033491A1, “COMBINATION THERAPY OF CLDN18 ANTIBODY AND CHEMOTHERAPY DRUGS” (CAFA THERAPEUTICS LIMITED, priority 2018, published 2022).

Columns and labels:
[1] = tested on: human gastric cancer PDX-GA0006 model; experiment: Analysis of the administration amount of antibody in tumor-forming PDX mice (Example 3); assay type: in vivo, BALB/c nude mice; conditions: AB3 group: 100 mg/kg i.p. 3 times a week for 2 weeks, versus 40 and 70 mg/kg; FIG. 5
Description: (§1) According to Example 2, different dosage of antibodies were administered to tumor-forming mice. The administration manners are listed as follows:
(§2) 1. AB1, administered with the antibody against CLD18A2 prepared in Example 1, at a dosage of 40 mg/kg, intraperitoneal injection, 3 times a week for 2 weeks.
(§3) 2. AB2, administered with the antibody against CLD18A2 prepared in Example 1, at a dosage of 70 mg/kg, intraperitoneal injection, 3 times a week for 2 weeks.
(§4) 3. AB3, administered with the antibody against CLD18A2 prepared in Example 1, at a dosage of 100 mg/kg, intraperitoneal injection, 3 times a week for 2 weeks.

[2] = tested on: human gastric cancer PDX-GA0006 model; experiment: In vivo efficacy experiment of subcutaneous transplanted tumor in mouse PDX model (Example 2); design: species or system BALB/c nude mice; conditions: tumors weighed after euthanasia on D51; Ab 40 mg/kg i.p. 3 times a week; epirubicin 1.25 mg/kg, oxaliplatin 3.25 mg/kg, fluorouracil 56.25 mg/kg once a week
Source text: A 2×2×2 mm gastric cancer PDX tumor mass was inoculated into BALB/c mice (the day of inoculation was DO). On D27 of subcutaneous inoculation, the tumor volume was 128 mm^3 on average, thereby obtaining the human gastric cancer PDX-GA0006 model, or abbreviated as PDX model. The tumor-forming mice were randomly divided into 6 groups, namely solvent group, antibody group (Ab group), EOF group, EOF+Ab group, OF group, OF+Ab group. During the experiment, the general clinical symptoms of the animals were observed, and the body weight and tumor diameter were measured twice a week. On D51, the mice were euthanized. The manners of administration are listed as follows:
Solvent group: intraperitoneal injection, 3 times a week.
Ab group: antibody against CLD18A2 prepared in Example 1, 40 mg/kg, intraperitoneal injection, 3 times a week.
EOF group: a combination of epirubicin hydrochloride for intraperitoneal injection (1.25 mg/kg)+oxaliplatin for injection (3.25 mg/kg)+fluorouracil injection (56.25 mg/kg), once a week; solvent, intraperitoneal injection, 3 times a week.
EOF+Ab group: EOF (epirubicin hydrochloride (1.25 mg/kg)+oxaliplatin for injection (3.25 mg/kg)+fluorouracil injection (56.25 mg/kg)), once a week, the antibody against CLD18A2 (40 mg/kg), 3 times a week. […]

[3] = Body weight of mice given different dosages of antibody (Example 3); assay type: in vivo, BALB/c nude mice; conditions: 40, 70, 100 mg/kg i.p. 3 times a week for 2 weeks; FIG. 6
Description: as §1, §2, §3, §4

B1: Ab: humanized antibody targeting CLD18A2, heavy chain variable region SEQ ID NO: 15, light chain variable region SEQ ID NO: 13 (antibody, V domains shown)
VH: QVQLQESGPGLIKPSQTLSLTCTVSGGSISSGYNWHWIRQPPGKGLEWIGYIHYTGSTNYNPALRSRVTISVDTSKNQFSLKLSSVTAADTAIYYCARIYNGNSFPYWGQGTTVTVSS
VL: DIVMTQSPDSLAVSLGERATINCKSSQSLFNSGNQKNYLTWYQQKPGQPPKLLIYWASTRESGVPDRFSGSGSGTDFTLTISSLQAEDVAVYYCQNAYSFPYTFGGGTKLEIKR
[1]
  anti-tumor effects (increase in tumor volume) at different dosages: better anti-tumor effects
[2]
  tumor inhibition rate compared with the solvent group (tumor weight): 1.21%
[3]
  change in body weight of mice: no significant change
